# Assay results from patent US20050239169.
# T1: SELADIN-1
# T1 chain: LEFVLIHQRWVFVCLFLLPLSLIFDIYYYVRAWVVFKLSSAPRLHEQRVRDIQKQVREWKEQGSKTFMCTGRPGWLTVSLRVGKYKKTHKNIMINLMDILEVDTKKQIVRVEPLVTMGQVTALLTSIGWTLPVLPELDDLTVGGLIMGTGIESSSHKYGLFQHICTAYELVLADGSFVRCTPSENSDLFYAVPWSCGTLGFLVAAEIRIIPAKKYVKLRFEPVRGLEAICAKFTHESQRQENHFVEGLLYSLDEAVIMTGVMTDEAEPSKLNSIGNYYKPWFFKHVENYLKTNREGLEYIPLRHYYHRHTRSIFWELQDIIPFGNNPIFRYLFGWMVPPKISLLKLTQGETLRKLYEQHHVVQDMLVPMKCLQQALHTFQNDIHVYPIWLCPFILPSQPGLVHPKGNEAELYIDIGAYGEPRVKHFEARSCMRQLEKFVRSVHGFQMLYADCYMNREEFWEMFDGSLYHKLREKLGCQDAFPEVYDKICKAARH
# Molecular target: T1, SELADIN-1
row,Protein,in vitro cleavage of SELADIN-1 (fragment sizes)
1,caspase 6 (protein) AFYKREMFDPAEKYKMDHRRRGIALIFNHERFFWHLTLPERRGTCADRDNLTRRFSDLGFEVKCFNDLKAEELLLKIHEVSTVSHADADCFVCVFLSHGEGNHIYAYDAKIEIQTLTGLFKGDKCHSLVGKPKIFIIQACRGNQHDVPVIPLDVVDNQTEKLDTNITEVDAASVYTLPAGADFLMCYSVAEGYYSHRETVNGSWYIQDLCEMLGKYGSSLEFTELLTLVNRKVSQRRVDFCKDPSAIGKKQVPCFASMLTKKLHFFPKSN,"In vitro cleavage of SELADIN-1 by caspase 3 or 6 generated four different SELADIN-1 fragments of approximately 50, 40, 30 and 20 kDa, respectively"
2,caspase 3 (protein) SGISLDNSYKMDYPEMGLCIIINNKNFHKSTGMTSRSGTDVDAANLRETFRNLKYEVRNKNDLTREEIVELMRDVSKEDHSKRSSFVCVLLSHGEEGIIFGTNGPVDLKKITNFFRGDRCRSLTGKPKLFIIQACRGTELDCGIETDSGVDDDMACHKIPVEADFLYAYSTAPGYYSWRNSKDGSWFIQSLCAMLKQYADKLEFMHILTRVNRKVATEFESFSFDATFHAKKQIPCIVSMLTKELYFYH,"In vitro cleavage of SELADIN-1 by caspase 3 or 6 generated four different SELADIN-1 fragments of approximately 50, 40, 30 and 20 kDa, respectively"
